Measured values reported in publication PMC10080691, “Enzyme-Responsive Double-Locked Photodynamic Molecular Beacon for Targeted Photodynamic Anticancer Therapy” (Journal of the American Chemical Society, 2023).

Experiments:
[1] = Fluorescence quantum yield in DMF; type: physicochemical; conditions: excited at 610 nm, relative to ZnPc (ΦF = 0.28 in DMF)
Text: The electronic absorption and fluorescence spectra of PMB 1 were first recorded in DMF and compared with those of the components 8 and 11, as well as the non-cleavable analogue 14 (Figure S2 and Table 1). […] In contrast, the fluorescence spectra of 1 and 14 were remarkably different from that of DSBDP 8.

[2] = Singlet oxygen quantum yield in DMF with DPBF as probe; type: physicochemical; conditions: irradiation λ > 610 nm, relative to ZnPc (ΦΔ = 0.56 in DMF)
Text: The singlet oxygen generation efficiency of 1 was then studied and compared with that of 8, 14, and ZnPc in all these media using 1,3-diphenylisobenzofuran (DPBF) as the singlet oxygen probe.[67] The absorbance of DPBF’s absorption at 415 nm (in DMF) or 417 nm (in PBS and the buffer) was monitored during light irradiation (λ > 610 nm). Figures S4–S6 show the changes in the absorption spectra of the mixtures in DMF, PBS, and the buffer, respectively, upon irradiation. […] The singlet oxygen quantum yields (ΦΔ) were also determined in DMF. […]
where W and Iabs are the DPBF photobleaching rate and the rate of light absorption, […]
MMP-2 and Cathepsin B-Responsive Spectroscopic Studies
Compound 1 or 14 was dissolved in DMF to form a 1 mM stock solution, which was then diluted to 1 μM with PBS at pH 7.4 or buffer solution (pH 5.0, 25 mM NaOAc, 1 mM EDTA, 500 μM GSH), both in the presence of 0.1% Tween 80 (v/v) . For the MMP-2-responsive studies, the solutions in PBS were treated with MMP-2 (2 μg mL-1). For the cathepsin B-responsive studies, the solutions in buffer solution were treated with cathepsin B (1 unit mL-1). […]
All of the solutions were stirred continuously at 37 °C. The ir electronic absorption and fluorescence spectra were monitored over a period of 25 h. […]

[3] = tested on: HeLa human cervical carcinoma cells; assay: Intracellular fluorescence by flow cytometry; type: cell-based; conditions: 2 μM 1 h + 6 h, SB-3CT (10 μM) and CA-074 Me (25 μM) 2 h pretreatment
Method: The cells were pretreated with SB-3CT (10 μM) and/or CA-074 Me (25 μM) or simply the neat medium for 2 h, followed by incubation with 1 (2 μM) for a further 1 h. After being rinsed with PBS, the cells were incubated in the medium for a further 6 h. As a negative control, the cells were simply incubated with 14 (2 μM) for 1 h, followed by post-incubation in the medium for 6 h. The fluorescence images of the cells under all these conditions were captured using a confocal laser scanning microscope. […] For the cells with pretreatment with both inhibitors, fluorescence due to 1 could hardly be seen. Similarly, for the cells being incubated with 14, the intracellular fluorescence was negligible. […] Again, for PMB 1, the fluorescence intensity was the highest for the cells without being pretreated with the two inhibitors. […] For HeLa cells being treated with 1, the fluorescence intensity of the native cells (i.e., the dual activated condition) was just 3.2-fold that of the cells under the dual inhibited condition. […]
Confocal Fluorescence Microscopic Studies […]
The cells were then rinsed with PBS twice before being examined with a Leica TCS SP8 high - speed confocal microscope equipped with a 638 nm laser. The fluorescence was monitored at 650−750 nm. The images were digitized and analyzed using a Leica Application Suite X […]

| SMILES | ΦF (fluorescence quantum yield) [1] | ΦΔ (singlet oxygen quantum yield) [2] | intracellular fluorescence intensity, native cells relative to dual inhibited condition [3] |
| --- | --- | --- | --- |
| CCN(CC)c1ccc2nc3ccc(/N=N/c4ccc(N(C)CCCNC(=O)OC[C@@H]5[C@@H]6CCc7nnn(CC(=O)NCCCC[C@@H]8NC(=O)CNC(=O)[C@H](CCCCN)NC(=O)[C@H](CCCNC(=N)N)NC(=O)[C@H](C(C)C)NC(=O)CNC(=O)[C@H](CC(C)C)NC(=O)[C@@H]9CCCN9C(=O)[C@H](CCCCN)NC(=O)[C@@H](N)CSCc9cc(COc%10ccc(C%11=C%12C(C)=C(I)C(/C=C/c%13ccc(OCCOCCOCCOC)cc%13)=[N+]%12[B-](F)(F)n%12c(/C=C/c%13ccc(OCCOCCOCCOC)cc%13)c(I)c(C)c%12%11)cc%10)cc(c9)CSC[C@@H](C(N)=O)NC(=O)[C@H](CCCCN)NC(=O)[C@H](CCCCN)NC(=O)CNC(=O)[C@H](CC(C)C)NC(=O)[C@H](Cc9ccccc9)NC(=O)CNC(=O)[C@H](CCCCN)NC(=O)CNC8=O)c7CC[C@@H]65)cc4)cc3[n+](-c3ccccc3)c2c1 [compound 1] | 0.01 | 0.02 | 3.2 fold |
| CCN(CC)c1ccc2nc3ccc(/N=N/c4ccc(N(C)CCCNC(=O)OC[C@@H]5[C@@H]6CCc7nnn(CC(=O)NCCCC[C@@H]8NC(=O)CNC(=O)[C@H](CCCCN)NC(=O)CNC(=O)CNC(=O)CNC(=O)CNC(=O)CNC(=O)[C@H](CCCCN)NC(=O)[C@@H](N)CSCc9cc(COc%10ccc(C%11=C%12C(C)=C(I)C(/C=C/c%13ccc(OCCOCCOCCOC)cc%13)=[N+]%12[B-](F)(F)n%12c(/C=C/c%13ccc(OCCOCCOCCOC)cc%13)c(I)c(C)c%12%11)cc%10)cc(c9)CSC[C@@H](C(N)=O)NC(=O)[C@H](CCCCN)NC(=O)[C@H](CCCCN)NC(=O)CNC(=O)CNC(=O)CNC(=O)CNC(=O)[C@H](CCCCN)NC(=O)CNC8=O)c7CC[C@@H]65)cc4)cc3[n+](-c3ccccc3)c2c1 [compound 14] | 0.01 | 0.02 | – |
